Test results from PMC2148441.

Target: human phosphopantetheinyl transferase (human) (UniProt Q9NRN7)

Km for ACP in the PPT reaction after replacement of the hydrophobic patch by alanines (data not shown): > 1000 fold
Substance: ACP domain of human fatty acid synthase with the hydrophobic patch Leu2157, Met2158, Val2160 replaced by alanine (from UniProt P49327 2117-2205) (domain or fragment)
